# From patent US20230049152A1
# B1: murine anti-human CCR8 mAb 433H (BD Biosciences) (antibody, from another filing, mouse IgG2a, V domains shown)
# VH: EVQLVETGGGLVQPKGSLRLSCAASGFPFNTFAMNWVRQAPGKGLEWLARIRSKSNNYATYYADSVKDRFTISRDDSRRMLYLLMNNVKFEDTAIYYCVRGKENNYGYAMDYWGQGTSVTVSS
# VL: DIVMTQAAPSVPVTPGESVSISCRSSQSLLHSNGNTYLYWFLQRPGQSPQLLIYRMSNLASGVPDRFSGSGSGTAFTLRISRVEAEDVGVYYCMQHLEYPFTFGIGTKLELKR
# Molecular target: human CCR8 (human) (UniProt P51685)
# Assay: cell-based or functional assay
binder,measurement,value
B1,"ADCC reporter EC50, mFcgRIV Jurkat cells with CHO/hCCR8 (FIG. 11D)",0.26 nM
same,"CCL1 blocking potency IC50, Ca2+ influx",17.6 nM
same,"induction fold at about 1 nM antibody, mFcgRIV Jurkat NFAT-luciferase reporter",> 12 fold
same,"induction fold plateau at about 40 nM antibody, mFcgRIV Jurkat NFAT-luciferase reporter",13 fold
